Source: patent US20030157645

Target: fluorescent labeled casein or bovine serum albumin molecules

Protein | Km [µM]
Subtilisin E (wild type) (protein) AQSVPYGISQIKAPALHSQGYTGSNVKVAVIDSGIDSSHPDLNVRGGASFVPSETNPYQDGSSHGTHVAGTIAALNNSIGVLGVSPSASLYAVKVLDSTGSGQYSWIINGIEWAISNNMDVINMSLGGPTGSTALKTVVDKAVSSGIVVAAAAGNEGSSGSTSTVGYPAKYPSTIAVGAVNSSNQRASFSSAGSELDVMAPGVSIQSTLPGGTYGAYNGTSMATPHVAGAAALILSKHPTWTNAQVRDRLESTATYLGNSFYYGKGLINVQAAAQ | 194
Variant 4 (Q103R/V138A/A150V/E156A/Y217H/Q271H) (protein) AQSVPYGISQIKAPALHSQGYTGSNVKVAVIDSGIDSSHPDLNVRGGASFVPSETNPYQDGSSHGTHVAGTIAALNNSIGVLGVSPSASLYAVKVLDSTGSGRYSWIINGIEWAISNNMDVINMSLGGPTGSTALKTAVDKAVSSGIVVVAAAGNAGSSGSTSTVGYPAKYPSTIAVGAVNSSNQRASFSSAGSELDVMAPGVSIQSTLPGGTYGAHNGTSMATPHVAGAAALILSKHPTWTNAQVRDRLESTATYLGNSFYYGKGLINVHAAAQ | 71
Variant 22 (E54D/Q103R/T133K/E156A/Y217H) (protein) AQSVPYGISQIKAPALHSQGYTGSNVKVAVIDSGIDSSHPDLNVRGGASFVPSDTNPYQDGSSHGTHVAGTIAALNNSIGVLGVSPSASLYAVKVLDSTGSGRYSWIINGIEWAISNNMDVINMSLGGPTGSKALKTVVDKAVSSGIVVAAAAGNAGSSGSTSTVGYPAKYPSTIAVGAVNSSNQRASFSSAGSELDVMAPGVSIQSTLPGGTYGAHNGTSMATPHVAGAAALILSKHPTWTNAQVRDRLESTATYLGNSFYYGKGLINVQAAAQ | 26
Variant 1 (Y6N/I31L/S38T/F50I/Q103R) (protein) AQSVPNGISQIKAPALHSQGYTGSNVKVAVLDSGIDSTHPDLNVRGGASIVPSETNPYQDGSSHGTHVAGTIAALNNSIGVLGVSPSASLYAVKVLDSTGSGRYSWIINGIEWAISNNMDVINMSLGGPTGSTALKTVVDKAVSSGIVVAAAAGNEGSSGSTSTVGYPAKYPSTIAVGAVNSSNQRASFSSAGSELDVMAPGVSIQSTLPGGTYGAYNGTSMATPHVAGAAALILSKHPTWTNAQVRDRLESTATYLGNSFYYGKGLINVQAAAQ | 117
